Patent US20240075137A1 (COMPUGEN, published 2024)
Read-outs that look alike come from different tables or passages of the source.

Key:
human PVRIG on cells [1] = molecular target: T1, human PVRIG on cells (human, UniProt Q6DKI7 1-326); experiment: FACS, human PBMC, CD8+ T cells, 10ug/ml
T1 construct: whole, on cells; over-expressed on HEK cells or endogenous on Jurkat and CD8 T cells; also called hPVRIG; HEK hPVRIG cells
T1 sequence (looked up): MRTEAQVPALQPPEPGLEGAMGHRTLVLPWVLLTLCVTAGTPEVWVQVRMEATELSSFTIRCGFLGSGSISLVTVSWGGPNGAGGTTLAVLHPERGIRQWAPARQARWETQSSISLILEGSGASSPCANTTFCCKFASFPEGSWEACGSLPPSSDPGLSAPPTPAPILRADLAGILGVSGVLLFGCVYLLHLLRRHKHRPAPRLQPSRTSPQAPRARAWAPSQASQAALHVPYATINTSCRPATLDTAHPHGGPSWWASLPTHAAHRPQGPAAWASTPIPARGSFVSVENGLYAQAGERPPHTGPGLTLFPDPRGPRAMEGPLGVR

human PVRIG on cells [2] = molecular target: T1, human PVRIG on cells; experiment: FACS, human PBMC, CD8+ T cells, 10ug/ml; remark: listed apart in the source
[3] = molecular target: T2, PVRIG (FACS-based competition assay of FIGS. 7 and 15) (Homo sapiens, UniProt Q6DKI7); experiment: FACS-based competition assay of PVRIG blocking; format and competitor not given
T2 construct: made because the format of the assay is only described in U.S. Ser. No. 15/048,967; also called human PVRIG
T2 sequence (receptor, looked up): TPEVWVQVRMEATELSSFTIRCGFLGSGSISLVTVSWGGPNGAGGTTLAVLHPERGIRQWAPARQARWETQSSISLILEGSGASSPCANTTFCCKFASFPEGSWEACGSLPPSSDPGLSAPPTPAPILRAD

human PVRIG on cells [4] = molecular target: T1, human PVRIG on cells; experiment: FACS, HEK hPVRIG cells (HEK OE)
[5] = molecular target: T3, cynomolgus PVRIG on cells (cynomolgus, UniProt A0A2K5WVV8 41-322); experiment: FACS, cyno PBMC, NK cells, 10ug/ml
T3 construct: whole, on cells; also called cPVRIG; expi cPVRIG cells
T3 sequence: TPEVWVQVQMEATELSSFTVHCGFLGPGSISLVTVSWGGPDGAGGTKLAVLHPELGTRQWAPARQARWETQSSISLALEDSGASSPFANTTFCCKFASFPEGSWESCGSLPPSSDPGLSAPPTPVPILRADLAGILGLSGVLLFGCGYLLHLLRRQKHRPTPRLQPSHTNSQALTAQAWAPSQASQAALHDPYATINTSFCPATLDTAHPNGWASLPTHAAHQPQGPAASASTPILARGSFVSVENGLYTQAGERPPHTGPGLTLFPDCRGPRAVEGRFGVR

[6] = molecular target: T3, cynomolgus PVRIG on cells; experiment: FACS, cyno PBMC, NK cells, 10ug/ml; remark: listed apart in the source
[7] = molecular target: T3, cynomolgus PVRIG on cells; experiment: FACS, expi cPVRIG over expi parental cells, 3.3ug/ml
[8] = molecular target: T3, cynomolgus PVRIG on cells; experiment: as above; remark: listed apart in the source
[9] = molecular target: T2, PVRIG (FACS-based competition assay of …); experiment: FACS-based competition assay of PVRIG blocking; format and competitor not given; remark: listed apart in the source
[10] = molecular target: T3, cynomolgus PVRIG on cells; experiment: FACS, cyno PBMC, CD8+ T cells, 10ug/ml
human PVRIG on cells [11] = molecular target: T1, human PVRIG on cells; experiment: FACS, human PBMC, CD56 int. NK cells, 10ug/ml
human PVRIG on cells [12] = molecular target: T1, human PVRIG on cells; experiment: FACS, Jurkat cells, relative to control, 3.3ug/ml
[13] = molecular target: T3, cynomolgus PVRIG on cells; experiment: FACS, cyno PBMC, CD8+ T cells, 10ug/ml; remark: listed apart in the source
human PVRIG on cells [14] = molecular target: T1, human PVRIG on cells; experiment: FACS, human PBMC, CD56 int. NK cells, 10ug/ml; remark: listed apart in the source
human PVRIG on cells [15] = molecular target: T1, human PVRIG on cells; experiment: FACS, HEK hPVRIG over HEK parental cells, 3.3ug/ml
[16] = molecular target: T3, cynomolgus PVRIG on cells; experiment: FACS, expi cPVRIG over expi parental cells, 3.3ug/ml; remark: listed apart in the source
human PVRIG on cells [17] = molecular target: T1, human PVRIG on cells; experiment: FACS, human PBMC, CD56 int. NK cells, 10ug/ml; remark: listed apart in the source
human PVRIG on cells [18] = molecular target: T1, human PVRIG on cells; experiment: FACS, human PBMC, CD8+ T cells, 10ug/ml; remark: listed apart in the source

B1: CHA.7.530 (antibody, V domains shown)
VH: QVQLQQSGAELMRPGTSVKVSCKASGYAFTNHLIEWIKQRPGQGLEWIGVINPGSDSTDYNEKFKDKATLTADKSSSTAYMQLSSLTSDDSAVYFCARSLYYNSWFVYWGQGTLVTVSA
VL: DIQMTQSPASLSASVGETVTITCRASENIYSYLAWYQQKRGKSPQLLVYNAKTLVEGVPSRFSGSGSGTQFSLKINSLQPEDFGSYYCQHHYGTPYTFGGGTKLEIK
gMFIr Human CD8+ T cells (human PVRIG on cells [1]): 6.47
gMFIr Human CD8+ T cells (human PVRIG on cells [2]): 6.47
IC50 [3]: 34.6 nM
EC50 (human PVRIG on cells [4]): 0.33 nM
gMFIr Cyno NK cells [5]: 1.73
gMFIr Cyno NK cells [6]: 1.73
gMFIr Expi cyno OE/par [7]: 60.8
gMFIr Expi cyno OE/par [8]: 60.8
IC50 [9]: 34.6 nM
gMFIr Cyno CD8+ T cells [10]: 1.89
gMFIr Human CD56 int. NK (human PVRIG on cells [11]): 6.04
gMFIr Jurkat (human PVRIG on cells [12]): 8.04
gMFIr Cyno CD8+ T cells [13]: 1.89
gMFIr Human CD56 int. NK (human PVRIG on cells [14]): 6.04
gMFIr HEK OE/par (human PVRIG on cells [15]): 51.1

B2: CHA.7.528 (antibody, V domains shown)
VH: EVQVQQSGPELVKPGASVKISCKASGYTFTKSNMHWVKQSHGKSLEWIGYIYPYNGGTGYNQNFKSKATLTVDISSSTAYMELRSLTLEDSAVYLCAREADYYGNRGQFDYWGQGTLVTVSA
VL: DIQMTQSPASLSVSVGETVTITCRASDNIFSNLAWYHQKQGKSPHLLVYGATNLADGVPSRFSGSGSGTQYSLKINSLQSEDFGDYYCQHFWGTPYTFGGGTKLEIK
gMFIr Human CD8+ T cells (human PVRIG on cells [1]): 3.63
gMFIr Human CD8+ T cells (human PVRIG on cells [2]): 3.63
IC50 [3]: 28.9 nM
EC50 (human PVRIG on cells [4]): 7.31 nM
gMFIr Cyno NK cells [5]: 1.21
gMFIr Cyno NK cells [6]: 1.21
gMFIr Expi cyno OE/par [7]: 12.2
gMFIr Expi cyno OE/par [8]: 12.2
IC50 [9]: 28.9 nM
gMFIr Cyno CD8+ T cells [10]: 1.18
gMFIr Human CD56 int. NK (human PVRIG on cells [11]): 3.08
gMFIr Jurkat (human PVRIG on cells [12]): 6.17
gMFIr Cyno CD8+ T cells [13]: 1.18
gMFIr Human CD56 int. NK (human PVRIG on cells [14]): 3.08
gMFIr HEK OE/par (human PVRIG on cells [15]): 44.9

B3: CHA.7.516 (antibody, V domains shown)
VH: QVQLQQSGPELVRPGVSVKISCKVSGYTFTDYVMHWVKQSHAKSLEWIGIISPYSGNTNYNQNFKGKATMTVDKSSSTAYMALARLTSEDSAIYYCAREGDLPMFAYWGQGTLVTVSA
VL: QIVLTQSPTIMSASPGEKVTMTCSASSSVSYIYWYQQNPGSSPRLLIYDTSILASGVPFRFSGSGSGTSYSLTISRMEAEDAATYYCQQWTSYPLTFGSGTKLELK
gMFIr Expi cyno OE/par [16]: 60
gMFIr Human CD8+ T cells (human PVRIG on cells [2]): 4.09
IC50 [3]: 33.1 nM
gMFIr Human CD56 int. NK (human PVRIG on cells [17]): 4.22
EC50 (human PVRIG on cells [4]): 0.79 nM
gMFIr Cyno NK cells [6]: 1.76
gMFIr Expi cyno OE/par [7]: 60
IC50 [9]: 33.1 nM
gMFIr Human CD56 int. NK (human PVRIG on cells [11]): 4.22
gMFIr Human CD8+ T cells (human PVRIG on cells [18]): 4.09
gMFIr Jurkat (human PVRIG on cells [12]): 5.73
gMFIr Cyno CD8+ T cells [13]: 2.09
gMFIr HEK OE/par (human PVRIG on cells [15]): 37.9

B4: CHA.7.524 (antibody, V domains shown)
VH: QVQLQQSGPEVVRPGVSVKISCKGSGYKFPDYVMHWVKQSHAKSLEWIGIISIYSGNTNYNQKFKGKATMTVDKSSSTAYMELARLTSEDSAIYYCAREGDLPMFAYWGQGTLVTVSA
VL: QIVLTQSPAIMSASPGEKVTMTCNASSSVSYMYWYQQKPISSPRLLIYDTSNLASGVPVRFSGSGSGTSYSLTIGRMEAEDAATYYCQQWSSYPLTFGAGTKVEVK
gMFIr Human CD8+ T cells (human PVRIG on cells [1]): 6.12
gMFIr Human CD8+ T cells (human PVRIG on cells [2]): 6.12
IC50 [3]: 30.2 nM
EC50 (human PVRIG on cells [4]): 0.46 nM
gMFIr Cyno NK cells [5]: 1.78
gMFIr Cyno NK cells [6]: 1.78
gMFIr Expi cyno OE/par [7]: 66.3
gMFIr Expi cyno OE/par [8]: 66.3
IC50 [9]: 30.2 nM
gMFIr Cyno CD8+ T cells [10]: 2.02
gMFIr Human CD56 int. NK (human PVRIG on cells [11]): 5.5
gMFIr Jurkat (human PVRIG on cells [12]): 7.87
gMFIr Cyno CD8+ T cells [13]: 2.02
gMFIr Human CD56 int. NK (human PVRIG on cells [14]): 5.5
gMFIr HEK OE/par (human PVRIG on cells [15]): 48.3

B5: CHA.7.537 (antibody, V domains shown)
VH: QVQLKESGPGLVAPSQSLSITCTVSGFSLIGHGVNWIRQPPGKGLEWLGVIWGDGNTDYNSALKSRLSISKDNSKSQVFLKMNSLQTDDTARYFCAVNSAMDYWGQGTAVTVSS
VL: NIVMTQSPKSMSMSVGERVTLNCTASENVASFVSWYQQKPEQSPKLLIYGTSNRYTGVPDRFTGSGSATDFTLTISSVQAEDLGDYHCGQSYNYPFTFGSGTKLEIE
gMFIr Human CD8+ T cells (human PVRIG on cells [1]): 3.41
gMFIr Human CD8+ T cells (human PVRIG on cells [2]): 3.41
IC50 [3]: 39 nM
EC50 (human PVRIG on cells [4]): 2.47 nM
gMFIr Cyno NK cells [5]: 1.18
gMFIr Cyno NK cells [6]: 1.18
gMFIr Expi cyno OE/par [7]: 1.55
gMFIr Expi cyno OE/par [8]: 1.55
IC50 [9]: 39 nM
gMFIr Cyno CD8+ T cells [10]: 1.19
gMFIr Human CD56 int. NK (human PVRIG on cells [11]): 3.9
gMFIr Jurkat (human PVRIG on cells [12]): 5.53
gMFIr Cyno CD8+ T cells [13]: 1.19
gMFIr Human CD56 int. NK (human PVRIG on cells [14]): 3.9
gMFIr HEK OE/par (human PVRIG on cells [15]): 36.6
